Changes are numbered by the printed parent chain. Numbers in names are those of the source. Where “and” joins values, the source holds several entries; their conditions need not be identical. Identical values can stand only once.
B1: Erv1^CXXS (Erv1C33S) (enzyme, S. cerevisiae, UniProt P27882 1-189, looked up)
chain: MKAIDKMTDNPPQEGLSGRKIIYDEDGKPCRSSNTLLDFQYVTGKISNGLKNLSSNGKLAGTGALTGEASELMPGSRTYRKVDPPDVEQLGRSSWTLLHSVAASYPAQPTDQQKGEMKQFLNIFSHIYPCNWCAKDFEKYIRENAPQVESREELGRWMCEAHNKVNKKLRKPKFDCNFWEKRWKDGWDE
notes: Erv1, S. cerevisiae, full length, second shuttle cysteine changed to serine
B2: Erv1 redox active-site disulfide double cysteine mutant (C130/C133S) (enzyme, S. cerevisiae, UniProt P27882 1-189, looked up)
chain: B1 chain with S33C, C130S, C133S
notes: Erv1, S. cerevisiae, full length, both active-site cysteines changed to serine; also called Erv1^CCSS
B3: Erv1 (essential for respiration and viability 1), wild-type (enzyme, S. cerevisiae, UniProt P27882 1-189, looked up)
chain: B1 chain with S33C
notes: Erv1, FAD-dependent thiol oxidase of the mitochondrial intermembrane space, S. cerevisiae, full length; Construct in pET24a(+) via Nde1/Xho1; also called WT Erv1; WT
B4: Mia40^CPS, core domain Mia40c (amino acids 284-403) with the second cysteine of the CPC motif changed to serine (domain or fragment, S. cerevisiae, UniProt P36046 284-403, looked up)
chain: AYNPDTGEINWDCPSLGGMAHGPCGEEFKSAFSCFVYSEAEPKGIDCVEKFQHMQDCFRKYPEHYAEQLKETSDDEEPQDKVKVNTIESAPNVSSAKENAAKKAEQSDVKKEPLNEESKP
notes: Mia40, S. cerevisiae, core domain Mia40c, residues 284-403 (~15 kDa); second cysteine of the CPC motif (Cys298) changed to serine; source: purified (glutathione-Sepharose 4B, thrombin cleavage, Superdex 75)
B5: Mia40^SPC, core domain Mia40c (amino acids 284-403) with the first cysteine of the CPC motif changed to serine (domain or fragment, S. cerevisiae, UniProt P36046 284-403, looked up)
chain: B4 chain with C13S, S15C
notes: Mia40, S. cerevisiae, core domain Mia40c, residues 284-403 (~15 kDa); first cysteine of the CPC motif (Cys296) changed to serine; source: purified (glutathione-Sepharose 4B, thrombin cleavage, Superdex 75)
B6: Erv1^SXXC (Erv1C30S) (enzyme, S. cerevisiae, UniProt P27882 1-189, looked up)
chain: B1 chain with C30S, S33C
notes: Erv1, S. cerevisiae, full length, first shuttle cysteine changed to serine; Found as a tetramer (peak 1, yellow) and a dimer (peak 2, black, charge-transfer complex)

Assays:
Cys30 = Cys30 (UniProt position 30, EDGKPCRSSNT); assay: chemical modification (monobromobimane alkylation) with fluorescence detection; conditions: 25°C; I = 0.15 M (constant ionic strength buffers, 120 mM NaCl); 15 mM acetic acid, 15 mM Mes and 30 mM Tris (pH 3.5–9.0), or 30 mM Aces, 15.6 mM Tris and 15.6 mM ethanolamine (pH 5.7–10). Both contained 120 mM NaCl and 0.1 mM DTPA.; Folded, FAD-bound. The single shuttle cysteine is reduced (free thiol, confirmed by AMS modification), and the active-site cysteines are replaced by serine.
Cys33 = Cys33 (UniProt position 33, KPSRSCNTLLD); assay: as above; conditions: 25°C; I = 0.15 M (constant ionic strength buffers, 120 mM NaCl); 15 mM acetic acid, 15 mM Mes and 30 mM Tris (pH 3.5–9.0), or 30 mM Aces, 15.6 mM Tris and 15.6 mM ethanolamine (pH 5.7–10). Both contained 120 mM NaCl and 0.1 mM DTPA.; Folded, FAD-bound. The single shuttle cysteine is reduced (free thiol, confirmed by AMS modification), and the active-site cysteines are replaced by serine.
[1] = target: the molecule itself; assay: SEC; Superdex 75 in buffer A (50 mM Tris/HCl pH 7.4, 150 mM NaCl); elution position compared with the Erv1 tetramer
[2] = target: the molecule itself; assay: non-reducing SDS/PAGE (intermolecular disulfide-bonded dimer); gel-filtration fractions of the purified proteins on Tris/Tricine SDS/PAGE (16% gel) under reducing and non-reducing conditions
Erv1^CXXS (Erv1C33S) = target: B1; assay: mixed disulfide trapping, non-reducing SDS/PAGE and Western blot; single cysteine mutants pre-treated with 2 mM TCEP, exchanged to buffer A, incubated at 5 uM each for 20 min at room temperature (stopped with 2.5 mM AMS, or 1 mM DTT as reducing control), or 50 uM Mia40 and 5 uM Erv1 over 10 min (stopped with 20 mM IAM); detected with an antibody against Erv1; conditions: both partners purified
Erv1^SXXC (Erv1C30S) = target: B6; assay: as above; conditions: both partners purified
[3] = target: the molecule itself; assay: SEC-MALS; Superdex 200 10/30 in buffer A (150 mM NaCl, 50 mM Tris/HCl pH 7.4), in-line DAWN EOS photometer and Optilab rEX refractor; the two gel-filtration peaks of the protein

Mitochondrial FAD-linked sulfhydryl (thiol) oxidase Erv1, triple mutant Erv1^CSSS (C33S/C130S/C133S) (Saccharomyces cerevisiae; C33S;C130S;C133S)
pKa (Cys30): 8.39±0.12

Mitochondrial FAD-linked sulfhydryl (thiol) oxidase Erv1, triple mutant Erv1^SCSS (C30S/C130S/C133S) (Saccharomyces cerevisiae; C30S;C130S;C133S)
pKa (Cys33): 8.41±0.06

B1
stoichiometry N [1]: 4

B2
binding result [2]: binds

B3
binding result [2]: binds

B4
binding result (Erv1^CXXS (Erv1C33S)): binds
binding result (Erv1^SXXC (Erv1C30S)): binds

B5
binding result (Erv1^CXXS (Erv1C33S)): binds
binding result (Erv1^SXXC (Erv1C30S)): binds

B6
stoichiometry N [3]: 4 and 2
